Assay [1] deals with PMNs. To be noted: Kao et al., 1994; cited from earlier work.
In a further assay the test system is MPs. To be noted: Kao et al., 1994; cited from earlier work.
Assay [2] relates to PMNs. Nature of the assay: 125I-human mini TyrRS binding and competition assay on PMNs. As to conditions: 10 nM 125I-mini TyrRS, 200-fold molar excess of unlabeled ligand, on ice 2 hours. The procedure, abridged: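 Human PMNs (2×10^6) in RPMI-1640 with 20 mM Hepes pH 7.4 and 10 mg/ml BSA were incubated with radioiodinated mini TyrRS. Bound and free label were separated by centrifugation through a 10% sucrose/PBS cushion, and cell-associated radioactivity was counted by scintillation.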

Assay [3] deals with chick chorioallantoic membrane (CAM). Nature of the assay: In vivo angiogenesis assay in chick chorioallantoic membrane (CAM). As to conditions: 250 ng TyrRS molecule or 25 ng VEGF165 on filter disk, 72 hours. The protocol: In vivo angiogenesis assays were conducted in chick chorioallantoic membrane (CAM) (Nicolaou et al., 1998, Bioorg. Med. Chem. 6:1185-208). Ten-day-old chick embryos were purchased from Mcintyre Poultry (Lakeside, Calif.) and were incubated at 37° C. and 70% humidity. A small hole was made with a small crafts drill (Dremel, Emerson Electric, Racine, Wis.) directly over the air sac at the end of the egg. The embryos were candled to determine a location to drill a second hole directly over embryonic blood vessels. […] A window was cut in the eggshell over the dropped CAM, exposing the CAM to direct access for experimental manipulation. Cortisone acetate-treated 5 mm filter disks were soaked with a particular protein sample (25 ng of VEGF165 or 250 ng of a given TyrRS molecule) and the filter disks added directly to the CAMs, which were relatively devoid of preexisting blood vessels. The windows were sealed with sterile tape and incubated at 37° C. […] After 72 hours, the CAM tissue associated with the filter disk was harvested and quantified using a stereomicroscope. Angiogenesis was assessed as the number of visible blood vessel branch points within the defined area of the filter disks. Each determination shown in FIG. 17 represents the mean from 5-8 embryos.

In assay [4] the test system is PMNs. Nature of the assay: PMN chemotaxis assay (ChemoTX microchemotaxis chamber). To be noted: sample proteins 1 nM, 45 min. Format: cell-based, human. The procedure, abridged: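 Human PMNs were isolated from healthy-donor blood over Histopaque 1077/1119. 10^4 cells were placed in the upper compartment of a ChemoTX microchemotaxis chamber, with sample protein at 1 nM in the lower compartment. After 45 min, migrated cells were counted as the mean of nine HPFs.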

The test system of assay [5] is human umbilical vein endothelial cells (HUVECs). Nature of the assay: HUVEC migration assay (modified Boyden chamber). In kind it is cell-based. As to conditions: 50 nM TyrRS molecule or 0.5 nM VEGF165, 6 hours. The protocol: In contrast, α-chemokines lacking the ELR motif act as angiostatic factors (id.). In order to evaluate the angiogenic activity of TyrRS, which contains the ELR motif, human full-length TyrRS and human mini TyrRS were first examined for their ability to induce endothelial cell migration. Such angiogenic assays were performed using human umbilical vein endothelial cells (HUVECs) (Clonetics, Walkersville, Md.). Cells were maintained in EGM-2® BULLETKIT® medium (Clonetics) in an atmosphere of 6% CO2 at 37° C. according to the supplier's instructions.
Cell migration assays were performed using the modified Boyden chamber (6.5 mm Transwells) with polycarbonate membranes (8.0 μm pore size) (Costar Corp., Cambridge, Mass.) (Masood et al., 1999, Blood 93:1038-44). Wells were coated overnight with 25 μg/mL human fibronectin (Biosource International, Camarillo, Calif.) in PBS and then allowed to air-dry. HUVECs were suspended in Dulbecco's modified Eagle's medium (DMEM) (Gibco-BRL, Gaithersburg, Md.) containing 0.1% BSA (Sigma) and 2×10^5 cells per well were added to the upper chamber. The chemotactic stimulus (50 nM of a given TyrRS molecule or 0.5 nM of human vascular endothelial growth factor-165 (VEGF165) (Biosource International, Camarillo, Calif.)) was placed in the lower chamber, and the cells were allowed to migrate for 6 hours at 37° C. in a 6% CO2 incubator. After incubation, non-migrant cells were removed from the upper face of the Transwell membrane with a cotton swab and migrant cells, those attached to the lower face, were fixed in methanol and visualized with the HEMACOLOR® stain set (EM Diagnostic Systems, Gibbstown, N.J.). Migrating cells were counted in high-power fields (HPFs). HUVECs were suspended in media with the inhibitor for 30 minutes before placement in the chamber. Each determination shown in FIG. 16 represents the average of nine HPF measurements.

Here are results for two molecules from patent US9205136B2, “Human aminoacyl-tRNA synthetase polypeptides useful for the regulation of angiogenesis” (THE SCRIPPS RESEARCH INSTITUTE, priority 2000, dated 2015).

On to “R-I-G-R-I-I-T (RIGRIIT; listed as Homo sapiens) [synthetic peptide of seven residues near the amino-terminus of human mature EMAP II, Cys replaced by Arg]”, for which, in the assay with PMNs [1], the “PMN migration induced by synthetic peptide (literature)” value is on record as “can induce PMN or MP migration”. Moreover, in the assay on MPs, the “MP migration induced by synthetic peptide (literature)” value is listed as “can induce PMN or MP migration”.

B1: mini TyrRS mutant: mini TyrRS in which the ELR motif was mutated to ELQ (Glu-Leu-Gln) (protein)
chain: MGDAPSPEEKLHLITRNLQEVLGEEKLKEILKERELKIYWGTATTGKPHVAYFVPMSKIADFLKAGCEVTILFADLHAYLDNMKAPWELLELQVSYYENVIKAMLESIGVPLEKLKFIKGTDYQLSKEYTLDVYRLSSVVTQHDSKKAGAEVVKQVEHPLLSGLLYPGLQALDEEYLKVDAQFGGIDQRKIFTFAEKYLPALGYSKRVHLMNPMVPGLTGSKMSSSEEESKIDLLDRKEDVKKKLKKAFCEPGNVENNGVLSFIKHVLFPLKSEFVILRDEKWGGNKTYTAYVDLEKDFAAEVVHPGDLKNSVEVALNKLLDPIREKFNTPALKKLASAAYPDPSKQKPMAKGPAKNSEPEEVILEHHHHHH
modifications: His6 tag; Human mini TyrRS mutant in pET20B
On to B1, for which, in the assay on PMNs [2], the “inhibition of 125I-mini TyrRS binding to PMNs by unlabeled ligand” value is recorded as “did not inhibit the binding”. Also, in assay [3], the “in vivo angiogenesis in chick CAM (blood vessel branch points)” value is recorded as “failed to induce in vivo angiogenesis”. In addition, the “PMN chemotaxis (PMN migration)” value in the assay on PMNs [4] was “did not induce PMN migration”. Further, in assay [5], the HUVEC chemotaxis result is listed as “no chemotaxis was observed”.
